21 sequences from the DeepSol protein solubility set can be followed below.

A short description of this data set: soluble on expression in E. coli; label from the status in PepcDB or PDB records.
As to “MAGQLPRRIIKETQRLLADPVPGISANPDESNARYFHVMIAGPDDSPFAGGVFKLELFLPEEYPMAAPKVRFMTKIYHPNIDKLGRICLDILKDKWSPALQIRTVLLSIQALLSAPNPEDPLATDVAEQWKTNEAEAIKTAKQWTMNYAQA”, the “soluble on expression in E. coli” value is recorded as “not soluble”.

Regarding “MLTEGISIQSYDGHTFGALVGSPAKAPAPVIVIAQDIFGVNAFMRETVSWLVDQGYAAVCPDLYARQAPGTALDPQDERQREQAYKLWQAFDMEAGVGDLEAAIRYARHQPYSNGKVGLVGYSLGGALAFLVASKGYVDRAVGYYGVGLEKQLNKVPEVKHPALFHMGGQDHFVPAPSRQLITEGFGANPLLQVHWYEEAGHSFARTGSSGYVASAAALANERTLDFLVPLQSRKP”, the “soluble on expression in E. coli” value is “soluble”.

Consider “SNAMALGFGMKMELQQFLDALASSPEKIEFETTMAVIEDNYDFTPAAFTNGNTQNDANENNGSCKIFAFGLLNALDKEATLACFGRFYREDVLLHPENNDHQNIRNFMVTGWEGIQFETSALTAK”, for which the “soluble on expression in E. coli” value was “soluble”.

As to “SGIMHQINNVYSLTPLSLPMELTPSCNEFYLKTWSEWEKNGTPGEQRNIAFNRLKICLQNQEAELNLSELDLKTLPDLPPQITTLEIRKNLLTHLPDLPPMLKVIHAQFNQLESLPALPETLEELNAGDNKIKELPFLPENLTHLRVHNNRLHILPLLPPELKLLVVSGNRLDSIPPFPDKLEGLALANNFIEQLPELPFSMNRAVLMNNNLTTLPESVLRLAQNAFVNVAGNPLSGHT”, the “soluble on expression in E. coli” value was “not soluble”.

Regarding “MSDDESIFVPDENSAQVSAETTVKCYRTDSASSQKVINNLEKFVLNQSLDKSYKKIASDGIASSKRTLESLLARNGGHQNLLNEEVNKLNNKNYTLDADGRVCLVKNSSNDTSRHQELILLQKDTHELRCLREYLMLALEAIMHNHRQMMVKHVQNVRERPRQVSQAAIDNAIVSSAFGLFIEAFYSFLFQEKANTRIIDEFAQMTLFVDQSIAREEIRSENRRKLKKTIEIETFLMRMMLEMEDIREANVKDLVSLWRSHQRSAKTQPTNNNAAGDSTN”, the “soluble on expression in E. coli” value is on record as “not soluble”.

With “SVGTSCIPGMAIPHNPLDSCRWYVSTRTCGVGPRLATQEMKARCCRQLEAIPAYCRCEAVRILMDGVVTSSGQHEGRLLQDLPGCPRQVQRAFAPKLVTEVECNLATIHGGPFCLSLLGAGE”, the “soluble on expression in E. coli” value is “soluble”.

With “MDKQIGFIGCGNMGMAMIGGMINKNIVSSNQIICSDLNTANLKNASEKYGLTTTTDNNEVAKNADILILSIKPDLYASIINEIKEIIKNDAIIVTIAAGKSIESTENAFNKKVKVVRVMPNTPALVGEGMSALCPNEMVTEKDLEDVLNIFNSFGQTEIVSEKLMDVVTSVSGSSPAYVYMIIEAMADAAVLDGMPRNQAYKFAAQAVLGSAKMVLETGIHPGELKDMVCSPGGTTIEAVATLEEKGLRTAIISAMQRCTQKSVELSGQTKKLEHHHHHH”, the “soluble on expression in E. coli” value was “soluble”.

In the case of “SMGDREQLLQRARLAEQAERYDDMASAMKAVTELNEPLSNEDRNLLSVAYKNVVGARRSSWRVISSIEQKTMADGNEKKLEKVKAYREKIEKELETVCNDVLSLLDKFLIKNCNDFQYESKVFYLKMKGDYYRYLAEVASGEKKNSVVEASEAAYKEAFEISKEQMQPTHPIRLGLALNFSVFYYEIQNAPEQACLLAKQAFDDAIAELDTLNEDSYKDSTLIMQLLRDNLTLWTSDQQDEEAGEGN”, the “soluble on expression in E. coli” value is “soluble”.

Take “MKLLKTKNCLYYRNGDNKLSEYQLLTQFNPAFINKKIKMCEFQIESMYHMSASTTTCDEIMGVVSVSYPIEKLVIKIIETKAGLQNYKNRSINNMALLKKVLNHYTEKEQKQVVKYMRSNGRYKPYNVIERLQVDLYQASIKQRSERQKQRNTAIENSKIARVNAYHQSSYVKVV”: the “soluble on expression in E. coli” value is reported as “not soluble”.

Turning to “MSDQLEASIKNILEQKTLKWIFVGGKGGVGKTTCSCSLAAQLSKVRERVLLISTDPAHNISDAFSQKFTKTPTLVEGFKNLFAMEIDSNPNGEGVEMGNIEEMLQNAAQNEGGSGGFSMGKDFLQSFAGGLPGIDEAMSFGEMIKLIDSLDFDVVVFDTAPTGHTLRLLQFPTLLEKVFTKILSLQGMFGPMMNQFGGMFGMGGGSMNEMIEKMTTTLESVKKMNAQFKDPNCTTFVCVCIAEFLSLYETERLIQELSKQGIDTHNIIVNQLLFPDTDANGTVSCRKCASRQAIQSKYLTDIDELYEDFHVVKLPLLEAEVRGGPAILQFSERMVDPEANKN”, the “soluble on expression in E. coli” value is “not soluble”.

As to “MMSSQAWTDVENDLIVADYFAMLAEDVAGHPYNKAEHRRQLLPRLNDRSDGSVEFKHQNISAVLKGLGEVWITGYKPAFNFQTSLVDAVARWLVINPGWTHRTLSSRPVDGMAEAAQLWVGPAPTLTNQPSPDELEQMLHIAKKFDVAARDGRNRALGKAGEERVLKHERNTLTAAGREDLAQQIRWVSEEEGDGAGYDIASFDADGRQRLIEVKTTNGWERTPFHISRNELAVADERREEWCLFRLWNFARTPKAFELRPPLDAYVSLTATSFQASIHLEHHHHHH”, the “soluble on expression in E. coli” value is “not soluble”.

Regarding “MKAMHMEQKIYKAKFSEYQLADNFINFNYLLKFKLGPEDVRAKGAFSTIFESTMLDWDLQLHKQFAGHILHSRESNWVISLNGSGVRDSYPPLHKLYFKVKAMGSDGSIKKSLKYFIDGLPIAPAERRGRMDHRSYTTLQNTQFERDLSTLIAEAKKKAQTIQLETRLEFKKNDLVDMKYLLGNGAPNMPDSLDYYFDAITNKSRHDLKLKTSDGMHFVMTNKEIVCLASQFFRQHLKDTTTEYTVGRADSVQSIDICLTYMITGIYKKPALLSPKLAFEIFALAMQWKVFEPKVLKNSIEKHCCEELQKNYEDIMYVCNMLIIADDAQFANVQNCCIATLVFYHAHDFIRIFVIGNHPLKERFSRRQEFLRPSLTMQVKRAFAASNESKCFIKFLPAIGED”, the “soluble on expression in E. coli” value was “not soluble”.

For “MYTLIIPAAGQGKRMGAGKNKLFLLINEVPIIVHTLRAFEKDKACKNIIMAINEEERPYFEELMQKYPVEKPVQFIQGGAERQDSVYNAIQHTTDVEYVLVHDGARPFVTNKVIQDVLTAAEKYGASICAVPVKDTVKKVEQGVVVETVERSQLKAVQTPQGFSVSLLLEAHRSAKQSCFLGTDDASLVERIGKQVGVVEGSYYNIKVTTPEDLLIAESFLHVQKK”, the “soluble on expression in E. coli” value is reported as “not soluble”.

For the sequence “GHPTLKTPESVTGTWKGDVKIQCIYDPLRGYRQVLVKWLVRHGSDSVTIFLRDSTGDHIQQAKYRGRLKVSHKVPGDVSLQINTLQMDDRNHYTCEVTWQTPDGNQVIRDKIIELRVRK”, the “soluble on expression in E. coli” value was “soluble”.

On to “MMTQQELEKYLWGAATTLRGTIDAGDYKQYIFPLMFFKRICDVYDEEFENALAESDGDLEYAAFAENHHFQVPKGAHWNDVRETTTNIGLALQNAMRAIEKANPDTLEGIFGDASWTNKERLSDAMLTNLIEHYSEQTLNLKNVPDDKLGNAYEYLIKEFADDSGHTAAEFYTNRTVVKLMTMIMAPQPGESVYDPTCGSGGLLLNCALHLKDEGKEYRTLKLYGQEINLLTSAIARMNMFMHGIEEFDIVRGNTLSNPGLLENDELKKFNVILANPPYSIKSWDRKAFESDPYGRNVWGTPPQGCADYAFQQHIQKSLDLGNGRSISLWPHGILFRDAETAMRRKMIEQDQVECVIGLGPNLFYNSPMEACLLITKTNKIESKKDKILFINAVKEVRQDKNIGYLDQVHIDKIFNAYNKFENEDSFAVLVDKQEVLDKKANMAINLYIRPDSLVSSEEACFATAYQEWQQSSGDLKQSMEKLFKELV”, for which the “soluble on expression in E. coli” value was “not soluble”.

As for “MNLLIDNWIPVRPRNGGKVQIINLQSLYCSRDQWRLSLPRDDMELAALALLVCIGQIIAPAKDDVEFRHRIMNPLTEDEFQQLIAPWIDMFYLNHAEHPFMQTKGVKANDVTPMEKLLAGVSGATNCAFVNQPGQGEALCGGCTAIALFNQANQAPGFGGGFKSGLRGGTPVTTFVRGIDLRSTVLLNVLTLPRLQKQFPNESHTENQPTWIKPIKSNESIPASSIGFVRGLFWQPAHIELCDPIGIGKCSCCGQESNLRYTGFLKEKFTFTVNGLWPHPHSPCLVTVKKGEVEEKFLAFTTSAPSWTQISRVVVDKIIQNENGNRVAAVVNQFRNIAPQSPLELIMGGYRNNQASILERRHDVLMFNQGWQQYGNVINEIVTVGLGYKTALRKALYTFAEGFKNKDFKGAGVSVHETAERHFYRQSELLIPDVLANVNFSQADEVIADLRDKLHQLCEMLFNQSVAPYAHHPKLISTLALARATLYKHLRELKPQGGPSNG”, the “soluble on expression in E. coli” value was “soluble”.

“MGSDKIHHHHHHMGIENMKICIVSFTKKGYELSCDIAYKLEKSAYEVEVFTKCSRLSDENIKNSTDENYRNTGYISQNISDWTAAQMSEKKALIFIGACGIAVRAIASSVNNKLKDSPVIVIDELGKFVIPILSGHVGGANEFAVLLAALMNATPVITTATDINNKFAVDVFAKKCRLAIVNKDGIARVSSKVLAGEVVTMSVDWEHIPAKHRSLIKAFLDKADMSADAIKTVDFPPAYGADIVVSCEKEKDTKNGSIYLKPTQFVLGIGCRRDTAFENIDRAIRQSLLKLQIDISDIDMIASIDVKKDEPGIKEFCERNRIEFVTYTADELMAVQGEFSASQFVREHVGVDNVCERAAVLACSRECDKAGELIYKKHKYDRVTVAAARYPD”: the “soluble on expression in E. coli” value is “not soluble”.

Consider “MKRFFLKTILAAFCVYVPAILNTAYACTRIVYQGPNGTIITARSMDWKGEIPANLWIFPRGIERNGEAGSTSVKWKSTYGSVITSSWDIASSDGMNEKGLVGNLLWLVESTYPKFVKDKDKPGLAVSLWLQYVLDNFATVSEAVAFLEKEPFVVASSHIPGTAIFATVHLSISDATGDNAIFEYIGGKLVIHHDRSYVTMTNSPVFDEQLAINTYWKNIPGTVMLPGTNRAADRFVRASYYIDAIPKTDNTRVALPSVFSVIRNCSVPLGISSEAEPNISSTRWRTVSDQKNLVYYFDNVLNPNVVWVEFSKIDFSEKAKVKKLTLANNENYSGEASMNFKAALPFTFAGLD”, for which the “soluble on expression in E. coli” value is listed as “not soluble”.

“SMVFDSESNLDRFLRCTTPIVPAYSLPKTQIKNLNPLWYPLESQSVEYFRLGDFWDCFDEWSAYGAGVPIVSETGETLVQYYVPYLSAIQIFTSHSVINTLREETESGDSGSESCSEEWRWEGCSSSEEGFDHQEPLDRLGYSYLQYFERCTPYSRVPLMDKIKELGERYVGLRSLRSVDLSPASWMAVAWYPIYHIPMNRSIKDLSTCFLTYHTLSSSFQDVKREEEKERISVSAFGMATYKMQGRLWDNDRLLCFLSVADSWLKQLRVHHHDFTYFTTTTHYL”: the “soluble on expression in E. coli” value is listed as “soluble”.

“MSLAGAVALSLFDELDVVFGPAALADALFYRHSPALRFELEGGKTYIAQFLQAVDRARTVLNVAFAGMEAVTAVLGVWGDDPPAQLWATAEAALHELGIKLPAPELSASELPTPETRVLHGEEDTQVLFAFTLSTARLPELLWGSLAADLGIFPQLRGRLWLAAPELGLLACPYDSRGMDMIGPNTARLAQLYHQFGDWLLDHDRARMAEMLSPGSKEGHHHHHH”: the “soluble on expression in E. coli” value is “soluble”.

With “MNSILICGGAGYIGSHAVKKLVDEGLSVVVVDNLQTGHEDAITEGAKFYNGDLRDKAFLRDVFTQENIEAVMHFAADSLVGVSMEKPLQYYNNNVYGALCLLEVMDEFKVDKFIFSSTAATYGEVDVDLITEETMTNPTNTYGETKLAIEKMLHWYSQASNLRYKIFRYFNVAGATPNGIIGEDHRPETHLIPLVLQVALGQREKIMMFGDDYNTPDGTCIRDYIHVEDLVAAHFLGLKDLQNGGESDFYNLGNGNGFSVKEIVDAVREVTNHEIPAEVAPRRAGDPARLVASSQKAKEKLGWDPRYVNVKTIIEHAWNWHQKQPNGYEK”, the “soluble on expression in E. coli” value was “soluble”.
